# Reference: publication PMC3694296, “11β-Hydroxysteroid dehydrogenase type 1 contributes to the balance between 7-keto- and 7-hydroxy-oxysterols in vivo” (Biochemical Pharmacology, 2013)
# B1: 11β-hydroxysteroid dehydrogenase type 1 (murine 11βHSD1, m11βHSD1) (Mus musculus) (protein)
# chain: NEEFRPEMLQGKKVIVTGASKGIGREMAYHLSKMGAHVVLTARSEEGLQKVVSRCLELGAASAHYIAGTMEDMTFAEQFIVKAGKLMGGLDMLILNHITQTSLSLFHDDIHSVRRVMEVNFLSYVVMSTAALPMLKQSNGSIAVISSLAGKMTQPMIAPYSASKFALDGFFSTIRTELYITKVNVSITLCVLGLIDTETAMKEISGIINAQASPKEECALEIIKGTALRKSEVYYDKSPLTPILLGNPGRKIMEFFSLRYYNKDMFVSN
# notes: truncated form of recombinant m11βHSD1 protein (N23Δ)
# What was measured:
# [1] = substrate: C[C@]12C[C@H](O)[C@H]3[C@@H](CCC4=CC(=O)CC[C@@]43C)[C@@H]1CC[C@@H]2C(=O)CO; experiment: oxidation kinetics (Km) with recombinant enzyme, HPLC; assay type: biochemical, Mus musculus; settings: NADP+
# [2] = substrate: C[C@]12CC(=O)[C@H]3[C@@H](CCC4=CC(=O)CC[C@@]43C)[C@@H]1CC[C@@H]2C(=O)CO; experiment: reduction kinetics (Km) with recombinant enzyme, HPLC; assay type: biochemical, Mus musculus; settings: NADPH
protein,measurement,setting,value
B1,Km,[1],1.78 ± 0.56 µM
same,Vmax,[1],4.82 ± 0.65 pmol/µg/min
same,Vmax/Km,[1],2.7 L/ug/min x 10^-6
same,Km,[2],0.20 ± 0.25 µM
same,Vmax,[2],8.56 ± 4.06 pmol/µg/min
same,Vmax/Km,[2],42.8 L/ug/min x 10^-6
